B1: PAIP1 peptide 126-141 (Polyadenylate-binding protein-interacting protein 1), 16-mer library wild type / PABPC1 PABC (PABPC1 PABC domain, residues 544-623) (parent)
chain 1: SKLSVNAPEFYPSGYS
chain 2: PLTASMLASAPPQEQKQMLGERLFPLIQAMHPTLAGKITGMLLEIDNSELLHMLESPESLRSKVDEAVAVLQAHQAKEAA

Variants of: B1
Assay: proteomic peptide phage display deep mutational scan (ProP-PD DMS): M13 P8 16-mer library selected against immobilised GST-tagged bait for four days (rounds), NGS of the eluted pools per day and pseudo-replica
Settings: with PABPC1 PABC (PABPC1 PABC domain, residues 544-623); bait immobilised on MaxiSorp plates (10 µg), library pre-cleared on GST, 2 h binding at 4 °C, five washes; one round per day, days 1-4; value from days 2 and 3; keep out of graded; scale: average fractional NGS count over selection days 2 and 3

Screen value: each site, then its substitutions
chain 1 S13: M 0.000419 | F 0.000556 | V 0.000104 | E 0.000161 | D 0 | I 0.000936
chain 1 P12: Y 0.00157 | T 0.000222 | Q 0.000152 | V 5.13e-05 | H 0.00057 | N 8.81e-05 | F 0.00121 | R 4.76e-05 | E 0.000484 | A 0.00198 | I 0.000623 | M 0.000643 | S 0.00133 | L 0.00211
chain 1 V5: L 0.000898 | N 0.000152 | Y 0 | G 9.64e-06 | Q 0.00077 | S 0.00056 | H 0.000797 | R 0.000262 | M 0.000169 | A 0.00035 | P 0.00187 | K 0.000215
chain 1 S4: N 8.32e-05 | P 0.000535 | G 0.000919 | M 8.55e-05 | R 0.000365 | T 0.000487 | V 9.02e-05 | Q 0.00694 | E 0.000106 | A 0.00227 | F 0.000754 | Y 0.000225 | D 0 | K 0.000353 | L 0.000589
chain 1 E9: I 8.24e-05 | N 0.00191 | L 0.000721 | P 0.000543 | K 0.000266 | F 0.00034 | H 0.00439 | M 0.00247 | R 4.17e-05 | V 0.000182 | T 0.00117 | S 0.00129 | Q 0.000332 | D 0.000746 | Y 0.000173
chain 1 L3: W 0.000852 | V 0.000373 | F 0.000815 | P 9.03e-05 | I 0.00043
chain 1 P8: L 0.000643 | S 0.000241 | R 0.000635 | Q 0.000383 | K 8.32e-05 | G 0.000696 | A 0.000105 | D 0.000406 | N 0.0134 | I 0.000615 | M 0.00039 | W 0.000763 | Y 0.0021 | F 0.000185 | V 0.00064
chain 1 Y15: T 0.000348 | I 7.69e-05 | A 0.00116 | V 0.000741 | N 0.000304 | Q 0.000411 | S 0.00124 | F 0.000589 | R 0.00115 | D 0.000552 | E 7.22e-05 | H 0.000264 | K 0.00083 | M 4.17e-05 | W 0.000396 | L 0.000221
chain 1 N6: Y 0.000705 | W 0.000917 | F 0.000327 | H 0.000862 | L 0.00023 | T 0.000385 | P 0 | M 0.000149 | V 0.000215 | G 0.000194 | E 0 | I 0.000614 | R 0.000467 | A 0.000611
chain 1 G14: V 0.000565 | T 0.000205 | Y 0.00125 | Q 9.29e-05 | E 0.000246 | I 0.000195 | R 0.000231 | S 0.000279 | A 0.00104 | P 0.00116 | M 0.000578 | K 0.000153
chain 1 A7: T 0.00119 | V 0.000178 | Q 0.00119 | L 4.17e-05 | P 0.000137 | H 0.000147 | M 0.000228 | N 0.000551 | S 0.000407 | G 0.000863
chain 1 K2: D 0.000197 | N 0.000212 | A 0.000319 | V 0.000896 | F 0.000245 | P 0.00022 | G 0.000321 | Y 0.000158 | I 0 | W 0.000491 | H 4.17e-05
chain 1 Y11: Q 0.00111 | N 0.000309 | M 0.00123 | W 0.000643 | V 0.00109 | S 0.000332 | R 0.000552 | A 0.000962 | E 0.00111 | G 0.000528 | K 0.000481 | I 0.000574 | D 0.000603 | L 0.00117 | F 0.000586 | H 0.000612 | T 0.000142
chain 1 F10: D 0 | Q 0 | W 0.0171 | Y 0.00206 | V 0

From article PMC12102759
